Laboratory results as given in the supplement of paper PMC11136658.

Test system: peptide library, one residue held at a place counted from the Y acceptor
Assay: relative phosphorylation of the sub-library (ratio to the mean residue at this position); higher = residue favoured
Procedure, shortened: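 Within 384-well plates, purified recombinant kinases phosphorylated biotinylated Tyr-centred peptide library mixtures over 90 min using 50 μM ATP spiked with γ-32P-ATP; each mixture fixed one residue at one position from −5 to +5. Streptavidin membrane capture, rinsing, phosphorimaging and ImageQuant gave the intensities. These were normalized per position to the sum of the 18 randomized residues (16 for the Ser/Thr-free library) and multiplied by that number.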

NTRK2, construct: aa455-end, human, sequence (Q16620 455-822, looked up): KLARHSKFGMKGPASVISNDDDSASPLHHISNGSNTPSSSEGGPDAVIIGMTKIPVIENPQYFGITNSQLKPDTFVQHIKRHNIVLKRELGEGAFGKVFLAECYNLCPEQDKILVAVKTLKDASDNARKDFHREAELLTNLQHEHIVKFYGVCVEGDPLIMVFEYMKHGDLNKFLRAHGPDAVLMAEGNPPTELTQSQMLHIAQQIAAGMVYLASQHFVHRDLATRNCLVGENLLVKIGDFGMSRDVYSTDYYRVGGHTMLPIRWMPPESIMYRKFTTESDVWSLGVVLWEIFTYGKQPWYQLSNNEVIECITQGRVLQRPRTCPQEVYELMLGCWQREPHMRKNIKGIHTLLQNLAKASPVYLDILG
NTRK1, construct: aa440-end, human, sequence (P04629 440-796, looked up): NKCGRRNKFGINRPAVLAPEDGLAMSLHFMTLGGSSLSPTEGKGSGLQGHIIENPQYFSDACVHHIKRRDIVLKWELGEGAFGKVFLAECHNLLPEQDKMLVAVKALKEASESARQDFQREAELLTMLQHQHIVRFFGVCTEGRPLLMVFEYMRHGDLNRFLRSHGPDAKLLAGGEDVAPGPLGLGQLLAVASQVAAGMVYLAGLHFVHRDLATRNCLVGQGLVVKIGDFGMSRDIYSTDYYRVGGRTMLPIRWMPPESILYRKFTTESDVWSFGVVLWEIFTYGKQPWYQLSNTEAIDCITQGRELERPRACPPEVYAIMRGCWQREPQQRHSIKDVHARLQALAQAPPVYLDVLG
NEK10, construct: aa266-895, human, sequence (Q6ZWH5 266-895, looked up): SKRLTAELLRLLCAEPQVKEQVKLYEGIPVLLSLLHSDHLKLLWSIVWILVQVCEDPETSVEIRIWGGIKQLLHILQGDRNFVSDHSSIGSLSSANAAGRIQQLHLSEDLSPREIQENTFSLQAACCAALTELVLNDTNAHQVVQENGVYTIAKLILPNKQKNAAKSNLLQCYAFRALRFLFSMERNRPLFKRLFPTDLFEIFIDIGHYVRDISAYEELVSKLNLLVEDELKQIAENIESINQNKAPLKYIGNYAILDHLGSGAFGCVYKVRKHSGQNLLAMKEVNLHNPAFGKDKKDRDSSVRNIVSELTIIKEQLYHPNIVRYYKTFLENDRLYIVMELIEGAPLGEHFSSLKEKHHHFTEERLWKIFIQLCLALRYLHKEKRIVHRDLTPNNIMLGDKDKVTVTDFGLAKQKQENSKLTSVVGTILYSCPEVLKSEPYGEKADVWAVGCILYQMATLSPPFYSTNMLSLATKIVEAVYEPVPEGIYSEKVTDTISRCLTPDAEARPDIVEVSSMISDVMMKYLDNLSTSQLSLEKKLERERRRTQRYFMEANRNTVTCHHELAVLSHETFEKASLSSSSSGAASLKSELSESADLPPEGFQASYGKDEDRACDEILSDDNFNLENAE

NEK10, construct: aa266-895, human (from UniProt Q6ZWH5)
relative phosphorylation
Settings	at +1	at +2	at +3	at +4	at +5	at -1	at -2	at -3	at -4	at -5
A fixed	0.35	0.54	0.755	0.959	0.812	0.916	0.855	1.05	1.13	1.08
D fixed	0.229	0.823	0.78	0.87	0.766	0.564	0.825	0.727	0.992	0.965
E fixed	0.173	0.582	0.836	0.71	0.776	0.798	0.772	0.745	0.897	0.981
F fixed	2.39	0.883	1.07	1.05	1.09	1.19	1.25	0.991	0.956	0.969
G fixed	0.353	1.31	1.12	1.1	1.08	1.01	1.12	0.981	1.16	1.17
H fixed	3.09	1.41	1.18	1.06	1.05	1.28	1.12	1.16	1.14	1.15
I fixed	0.888	0.45	0.571	0.794	0.692	0.801	0.637	0.801	0.805	0.869
K fixed	0.373	1.05	1.13	1.21	1.41	0.876	1.13	1.21	1.27	1.2
L fixed	1.8	0.577	0.754	0.944	0.887	1.21	1.06	1.09	0.852	0.826
M fixed	0.954	0.783	1.12	1	0.918	1.13	0.989	0.982	1.01	0.867
N fixed	0.565	1.55	1.24	1.02	1.07	0.796	1.4	1.02	0.84	0.987
P fixed	0.387	1.63	1.29	1.13	1.05	0.715	1.02	0.946	1.14	1.07
Q fixed	0.461	1.65	1.28	0.915	1.06	0.916	0.998	1.07	0.974	0.931
R fixed	0.451	1.25	1.34	1.29	1.49	1.05	1.19	1.55	1.19	1.31
V fixed	0.455	0.473	0.584	0.771	0.703	0.708	0.607	0.695	0.673	0.735
W fixed	3.08	1.04	0.934	1.17	1.15	2.04	1.03	0.981	0.971	0.901
pThr fixed	0.242	0.585	0.599	0.764	0.714	0.515	0.453	0.608	0.64	0.774
pTyr fixed	0.248	0.44	0.693	0.723	0.72	1.03	0.783	0.764	0.734	0.812

NTRK1, construct: aa440-end, human (from UniProt P04629)
relative phosphorylation
Settings	at +1	at +2	at +3	at +4	at +5	at -1	at -2	at -3	at -4	at -5
A fixed	1.34	0.684	0.751	0.76	0.909	0.676	0.944	0.792	1.02	0.882
D fixed	0.529	0.79	0.541	1.4	1.19	2.24	1.22	1.3	1.08	1.17
E fixed	0.936	1.28	0.45	1.52	1.12	1.07	1.34	1.5	1.32	1.03
F fixed	1.66	1.26	1.82	0.952	1.24	0.966	0.812	1.12	1.33	1.04
G fixed	0.711	0.438	0.891	1.25	1.07	0.578	1.05	0.955	1.05	1.08
H fixed	0.979	0.731	0.706	1.09	0.991	1.42	0.947	1.15	0.963	1.04
I fixed	1.66	1.28	2.02	0.897	0.748	1.32	0.854	0.777	0.837	0.946
K fixed	0.236	0.577	0.271	0.658	0.783	0.273	0.811	0.691	0.722	0.782
L fixed	1.2	1.2	1.92	0.734	0.983	1.17	1.01	0.794	0.939	0.93
M fixed	1.79	1.4	1.64	1.04	1.03	0.884	1.02	0.979	0.884	0.997
N fixed	0.441	0.952	0.475	0.899	1	2.12	1.25	1.39	0.93	1.23
P fixed	0.267	0.688	0.885	1.15	1.42	0.942	0.936	0.875	1.12	0.996
Q fixed	0.984	0.922	0.544	1.01	0.944	0.869	1.18	0.872	1.1	1.04
R fixed	0.273	0.983	0.419	0.803	0.883	0.349	0.871	0.854	0.79	1.02
S fixed	0.736	0.743	0.725	0.829	0.788	0.686	1.11	1.01	0.803	0.89
T fixed	0.916	0.955	0.868	0.85	0.715	0.873	0.897	0.987	0.671	0.939
V fixed	1.84	1.06	1.38	0.784	0.743	0.951	0.756	0.696	0.791	0.785
W fixed	1.5	2.06	1.71	1.37	1.43	0.614	0.99	1.25	1.66	1.2
pThr fixed	1.54	0.962	0.449	1.08	0.958	0.981	0.838	0.952	0.96	1.03
pTyr fixed	2.47	2.33	0.884	1.74	1.01	4.13	1.32	1.48	1.44	1.23

NTRK2, construct: aa455-end, human (from UniProt Q16620)
relative phosphorylation
Settings	at +1	at +2	at +3	at +4	at +5	at -1	at -2	at -3	at -4	at -5
A fixed	1.42	0.697	0.136	0.894	0.979	0.684	0.962	0.876	0.971	0.87
D fixed	0.407	0.696	0.42	0.788	1.01	2.06	1.2	1.25	1.11	1.21
E fixed	0.546	0.786	0.308	0.894	0.831	0.84	1.28	1.36	1.33	1.1
F fixed	1.81	1.35	1.88	1.09	1.16	1.12	0.959	1.15	1.32	1.06
G fixed	0.747	0.491	0.569	1.18	1.05	0.45	1.02	0.864	0.996	0.954
H fixed	1.23	0.808	0.871	1.11	1.01	1.36	1.13	1.19	1.05	1.09
I fixed	1.58	1.27	2.41	0.847	0.742	1.31	0.745	0.661	0.825	0.894
K fixed	0.257	0.893	0.387	0.97	0.979	0.259	0.841	0.732	0.752	1.05
L fixed	1.05	1.1	2.12	0.898	0.989	1.38	1.03	0.878	0.921	0.923
M fixed	1.61	1.17	1.63	1.02	0.922	0.958	0.809	0.982	0.82	0.979
N fixed	0.37	0.919	0.467	0.774	0.928	2.13	1.22	1.26	0.921	1.13
P fixed	0.261	0.723	0.785	1.06	1.23	0.772	0.886	0.789	1.1	0.884
Q fixed	0.811	0.927	0.546	0.993	0.912	0.907	1.08	0.964	1.12	1.09
R fixed	0.266	1.16	0.65	0.997	1.03	0.258	0.877	0.785	0.84	1.06
S fixed	0.824	0.914	0.728	0.965	1.06	0.713	1.15	1.11	0.774	0.872
T fixed	0.776	0.897	0.702	0.838	0.914	0.805	0.888	0.93	0.635	0.776
V fixed	2.18	1.24	1.69	0.911	0.83	1.17	0.802	0.769	0.81	0.806
W fixed	1.85	1.95	1.72	1.76	1.42	0.822	1.11	1.46	1.71	1.25
pThr fixed	1.17	0.567	0.302	0.689	0.807	0.824	0.828	0.83	0.932	0.913
pTyr fixed	1.77	1.3	0.567	1.03	0.776	3.47	1.13	1.22	1.26	0.986
